Reference: the supplement of paper PMC11246515
± gives the standard deviation of the averaged measurements.

Assay: total protein half-life in vivo (active degradation + dilution); higher = more stable protein
[1] = E. coli NCM3722 delta-clpP delta-lon delta-hslV, growth: N-lim chemostat, doubling time 6 h
[2] = E. coli NCM3722 delta-clpP, growth: N-lim chemostat, doubling time 6 h
[3] = E. coli NCM3722 delta-hslV, growth: N-lim chemostat, doubling time 6 h
[4] = E. coli NCM3722 delta-lon, growth: N-lim chemostat, doubling time 6 h
[5] = E. coli NCM3722 delta-smpB, growth: N-lim chemostat, doubling time 6 h
[6] = wild type E. coli NCM3722, growth: C-lim chemostat, doubling time 3 h
[7] = wild type E. coli NCM3722, growth: C-lim chemostat, doubling time 6 h
[8] = wild type E. coli NCM3722, growth: C-lim chemostat, doubling time 12 h
[9] = wild type E. coli NCM3722, growth: N-lim chemostat, doubling time 6 h
[10] = wild type E. coli NCM3722, growth: N-lim chemostat, doubling time 12 h
[11] = wild type E. coli NCM3722, growth: P-lim chemostat, doubling time 6 h
[12] = wild type E. coli NCM3722, growth: P-lim chemostat, doubling time 12 h

Sequence	total protein half-life in vivo [1] [h]	total protein half-life in vivo [2] [h]	total protein half-life in vivo [3] [h]	total protein half-life in vivo [4] [h]	total protein half-life in vivo [5] [h]	total protein half-life in vivo [6] [h]	total protein half-life in vivo [7] [h]	total protein half-life in vivo [8] [h]	total protein half-life in vivo [9] [h]	total protein half-life in vivo [10] [h]	total protein half-life in vivo [11] [h]	total protein half-life in vivo [12] [h]
MGFKCGIVGLPNVGKSTLFNALTKAGIEAANFPFCTIEPNTGVVPMPDPRLDQLAEIVKPQRTLPTTMEFVDIAGLVKGASKGEGLGNQFLTNIRETEAIGHVVRCFENDNIIHVSGKVNPADDIEVINTELALADLDTCERAIHRVQKKAKGGDKDAKAELAVLEKCLPQLENAGMLRALDLSAEEKAAIRYLSFLTLKPTMYIANVNEDGFENNPYLDQVREIAAKEGSVVVPVCAAVEADIAELDDEERDEFMQELGLEEPGLNRVIRAGYKLLNLQTYFTAGVKEVRAWTIPVGATAPQAAGKIHTDFEKGFIRAQTISFEDFITYKGEQGAKEAGKMRAEGKDYIVKDGDVMNFLFNV [P0ABU2]	3.92 ± 0.14	3.74 ± 0.63	3.66 ± 0.24	4.72 ± 0.67	3.69 ± 0.13	3.61 ± 0.17	4.77 ± 0.28	9.13 ± 0.49	3.5 ± 0.18	5.15 ± 0.31	5.12 ± 0.4	9.68 ± 0.37
MGFLSGKRILVTGVASKLSIAYGIAQAMHREGAELAFTYQNDKLKGRVEEFAAQLGSDIVLQCDVAEDASIDTMFAELGKVWPKFDGFVHSIGFAPGDQLDGDYVNAVTREGFKIAHDISSYSFVAMAKACRSMLNPGSALLTLSYLGAERAIPNYNVMGLAKASLEANVRYMANAMGPEGVRVNAISAGPIRTLAASGIKDFRKMLAHCEAVTPIRRTVTIEDVGNSAAFLCSDLSAGISGEVVHVDGGFSIAAMNELELK [P0AEK4]	5.4 ± 0.09	5.37 ± 0.42	5.299 ± 0.046	5.88 ± 0.25	4.97 ± 0.28	3.26 ± 0.14	5.9 ± 1.1	11 ± 1.2	5.28 ± 0.18	10.2 ± 2	6.19 ± 0.08	13.74 ± 0.13
MGHKPLYRQIADRIREQIARGELKPGDALPTESALQTEFGVSRVTVRQALRQLVEQQILESIQGSGTYVKEERVNYDIFQLTSFDEKLSDRHVDTHSEVLIFEVIPADDFLQQQLQITPQDRVWHVKRVRYRKQKPMALEETWMPLALFPDLTWQVMENSKYHFIEEVKKMVIDRSEQEIIPLMPTEEMSRLLNISQTKPILEKVSRGYLVDGRVFEYSRNAFNTDDYKFTLIAQRKSSR	5.56 ± 0.42	5.47 ± 0.059	5.26 ± 0.32	4.83 ± 0.42	4.99 ± 0.07	2.985 ± 0.0092			5.354 ± 0.041	9.53 ± 0.028	5.8 ± 0.12	12.1 ± 1.1
MGIFKAKNPCTKNTIFTTSNTLIYGGFMISLNDFYEQICRKRRDLAYHMSECEWAVDTDVLEEDHPEIRIELGRMREQFWSSEKIGTRVRLYSCDVPWETRHHTVNGQLEIKEEYTELYDPAQECWKNLSSNLTKETFLPLVIEPFSINDIFKAHLMFASISFFWGKSIMSENENVAFKAFHRAAELFDKCIGMTWFNISVCNQKKLSEVRRSAGKKGGKSKAEVYHIIQLKLVELINDSVPNDGWKNKVVAVNELIEPLWDFIQMSEFEINNQNKKYRVATMSQDALVDTILNQWSLKNEDVKQAFDSAVRRKKRSK	5.49 ± 0.65											
MGIIAQNKISSLGMLFGAIALMMGIIHFSFGPFSAPPPTFESIVADKTAEIKRGLLAGIKGEKITTVEKKEDVDVDKILNQSGIALAIAALLCAFIGGMRKENRWGIRGALVFGGGTLAFHTLLFGIGIVCSILLIFLIFSFLTGGSLV									5.09			
MGIKQHNGNTKADRLAELKIRSPSIQLIKFGAIGLNAIIFSPLLIAADTGSQYGTNITINDGDRITGDTADPSGNLYGVMTPAGNTPGNINLGNDVTVNVNDASGYAKGIIIQGKNSSLTANRLTVDVVGQTSAIGINLIGDYTHADLGTGSTIKSNDDGIIIGHSSTLTATQFTIENSNGIGLTINDYGTSVDLGSGSKITTDGSTGVYIGGLNGNNANGAARFTATDLTIDVQGYSAMGINVQKNSVVDLGTNSTIKTNGDNAHGLWSFGQVSANALTVDVTGAAANGVEVRGGTTTIGADSHISSAQGGGLVTSGSDAIINFTGTAAQRNSIFSGGSYGASAQTATAVVNMQNTDITVDRNGSLALGLWALSGGRITGDSLAITGAAGARGIYAMTNSQIDLTSDLVIDMSTPDQMAIATQHDDGYAASRINASGRMLINGSVLSKGGLINLDMHPGSVWTGSSLSDNVNGGKLDVAMNNSVWNVTSNSNLDTLALSHSTVDFASHGSTAGTFATLNVENLSGNSTFIMRADVVGEGNGVNNKGDLLNISGSSAGNHVLAIRNQGSEATTGNEVLTVVKTTDGAASFSASSQVELGGYLYDVRKNGTNWELYASGTVPEPTPNPEPTPAPAQPPIVNPDPTPEPAPTPKPTTTADAGGNYLNVGYLLNYVENRTLMQRMGDLRNQSKDGNIWLRSYGGSLDSFASGKLSGFDMGYSGIQFGGDKRLSDVMPLYVGLYIGSTHASPDYSGGDGTARSDYMGMYASYMAQNGFYSDLVIKASRQKNSFHVLDSQNNGVNANGTANGMSISLEAGQRFNLSPTGYGFYIEPQTQLTYSHQNEMTMKASNGLNIHLNHYESLLGRASMILGYDITAGNSQLNVYVKTGAIREFSGDTEYLLNNSREKYSFKGNGWNNGVGVSAQYNKQHTFYLEADYTQGNLFDQKQVNGGYRFSF		> 8	6.81 ± 1.4	5.53 ± 0.71	5.18 ± 1			> 16	7.13	11.6 ± 0.3	4.97 ± 1.4	12.5 ± 2.7
MGKEVMGKKENEMAQEKERPAGSQSLFRGLMLIEILSNYPNGCPLAHLSELAGLNKSTVHRLLQGLQSCGYVTTAPAAGSYRLTTKFIAVGQKALSSLNIIHIAAPHLEALNIATGETINFSSREDDHAILIYKLEPTTGMLRTRAYIGQHMPLYCSAMGKIYMAFGHPDYVKSYWESHQHEIQPLTRNTITELPAMFDELAHIRESGAAMDREENELGVSCIAVPVFDIHGRVPYAVSISLSTSRLKQVGEKNLLKPLRETAQAISNELGFTVRDDLGAIT	6.16 ± 0.066	6.38 ± 0.83	5.57 ± 0.36	5.84 ± 0.19	5.29 ± 0.3	2.91 ± 0.036	6.07 ± 0.19	12.6 ± 1.2	5.86 ± 0.21	9.57 ± 0.79	6.38 ± 1.8	11.2 ± 2.3
